Assay results as given in article PMC3052533, “Amino acid changes within the Bunyamwera virus nucleocapsid protein differentially affect the mRNA transcription and RNA replication activities of assembled ribonucleoprotein templates” (The Journal of General Virology, 2011).
Changes are numbered by the printed parent chain.

B1: Bunyamwera virus (BUNV) nucleocapsid (N) protein, wild type (natural protein)
chain: MIELEFHDVAANTSSTFDPEVAYANFKRVHTTGLSYDHIRIFYIKGREIKTSLAKRSEWEVTLNLGGWKITVYNTNFPGNRNNPVPDDGLTLHRLSGFLARYLLEKMLKVSEPEKLIIKSKIINPLAEKNGITWNDGEEVYLSFFPGSEMFLGTFRFYPLAIGIYKVQRKEMEPKYLEKTMRQRYMGLEAATWTVSKLTEVQSALTVVSSLGWKKTNVSAAARDFLAKFGINM
notes: nucleocapsid (N) protein of Bunyamwera virus, expressed from plasmid pET-BUN-N (Rodgers et al., 2006); predicted monomer mass 28.8 kDa; also called BUNV N protein; WT
B2: BUNV N protein R40A (natural protein, Bunyamwera virus, UniProt P16495 1-233, looked up)
chain: B1 chain with R40A
notes: nucleocapsid (N) protein of Bunyamwera virus, from modified plasmid pET-BUN-N, single alanine substitution
B3: BUNV N protein R101A (natural protein, Bunyamwera virus, UniProt P16495 1-233, looked up)
chain: B1 chain with R101A
notes: as for B2
B4: BUNV N protein R94A (natural protein, Bunyamwera virus, UniProt P16495 1-233, looked up)
chain: B1 chain with R94A
notes: nucleocapsid (N) protein of Bunyamwera virus, from modified plasmid pET-BUN-N, single alanine substitution; monomers and tetramers equally abundant
B5: BUNV N protein K55A (natural protein, Bunyamwera virus, UniProt P16495 1-233, looked up)
chain: B1 chain with K55A
notes: as for B2
B6: BUNV N protein K179A (natural protein, Bunyamwera virus, UniProt P16495 1-233, looked up)
chain: B1 chain with K179A
notes: as for B2
B7: BUNV N protein K50A (natural protein, Bunyamwera virus, UniProt P16495 1-233, looked up)
chain: B1 chain with K50A
notes: as for B2

Molecular target: the molecule itself
Assay: SEC; Superdex S200 column, purified N proteins analysed immediately following purification; elution compared with molecular mass standards; monomer and tetramer peaks

| Protein | stoichiometry N | binding result |
| --- | --- | --- |
| B1 | 4 | – |
| B2 | – | binds |
| B3 | – | binds |
| B4 | 4 | – |
| B5 | – | binds |
| B6 | – | binds |
| B7 | – | binds |
